The record followed here is paper PMC5435687 (Scientific Reports, 2017).

Data set [1] relates to SH-SY5Y cells transfected with Arf6 WT/Q67L. Description: Uptake in cells transfected with Arf6 WT or Q67L (confocal imaging). The data set is classed as cell-based, human. The note with it: SH-SY5Y 24 h post transfection, 1 µM HF488-labelled Aβ 24 h, confocal microscopy. As for the experimental part: The samples were washed 1x in serum free medium prior to incubation with Aβ peptides and/or other reagents also in serum free medium that was supplemented with 30 mM HEPES and 2% B-27. For experiments including Trf B-27 was omitted as it, according to the media formulation provided by the manufacturer, contains unlabelled Trf that interferes with the experiment. Prior to imaging, cells were stained with 50 nM LysoTracker Deep Red for 30 min and 5 µg/ml Hoechst 33342 was added during the last 10 min of incubation. The cells were thereafter washed 1x, treated with 5 µg/ml FM 4–64 and imaged immediately (for labelling of cellular membrane) or after 10 min incubation at 37 °C (for labelling of cellular membrane and endocytic vesicles). […] The scanner unit was mounted onto a Leica DMIRB microscope equipped with an oil immersion 63x NA 1.47 Leica HCX PL APO objective for imaging and co-localisation analysis, or a 40x NA 0.55 Leica N PLAN L CORR air objective for quantification of peptide uptake. The sample was excited and detected sequentially with appropriate excitation laser lines and emission filters. […]

The nature of data set [2]: SDS-PAGE of peptide solutions, band quantification (monomer fraction). The data set is classed as physicochemical. As to conditions: 1 µM HF488-labelled peptide in cell culture medium after HFIP pre-treatment; NuPAGE 4–12% Bis-Tris gel, fluorescence scan, ImageJ. As for the experimental part: The lyophilized Aβ peptide powders were dissolved in hexafluoro-2-propanol to disrupt any aggregates[26] and monomerize the peptide. The solutions were vortexed briefly and aliquoted at 4 °C. The solvent in each aliquot was evaporated at 37 °C for 60 min using a RVC 2–18 CD Rotational Vacuum concentrator (Martin Christ, Germany). The remaining peptide films were snap frozen in liquid nitrogen and kept at −80 °C until further use. For concentration determinations the peptide film was dissolved in 1% ammonium hydroxide (v/v) and the absorption of the dye label was measured on a Cary 4000 UV-Vis Spectrophotometer (Agilent Technologies, Santa Clara, CA, US). Extinction coefficients of 70,000 M^−1cm^−1 at 504 nm and 250 000 M^−1cm^−1 at 649 nm was used for the HF488 and HF647 dye labels, respectively, according to the information provided by the manufacturer. Prior to each experiment one peptide film was dissolved in a small volume 1% ammonium hydroxide (v/v) and diluted with cell culture medium supplemented with 30 mM HEPES. […] The HF488 dye was excited by a 488 nm laser and emission detected through a 520/40 nm filter. After background correction, the gel bands corresponding to monomer, dimer and trimer species were quantified in ImageJ (NIH, Bethesda, Maryland, US) by integrated intensity of the respective bands.

The next data set relates to SH-SY5Y cells. Put plainly: Flow cytometry quantification of cellular uptake and clearance. The format is cell-based, human. The note with it: 500 nM, up to 3 days, 500 nM to 2.5 µM for 5 h. As to the method: SH-SY5Y cells were grown in a 1:1 mixture of minimal essential medium (MEM) and nutrient mixture F-12 Ham supplemented with 10% heat-inactivated fetal bovine serum, 1% MEM non-essential amino acids and 2 mM L-glutamine. The cells were detached (trypsin-EDTA 0.05%, 5 minutes) and passaged twice a week. Cells were plated 1day prior to experiments in either flat-bottomed 96 well plates (Nunc; 60,000 cells/well for experiments <1day and 20,000 cells/well for experiments ≥1day) for flow cytometry or in glass-bottomed culture dishes (MatTek; 25,000 cells/14 mm dish) for microscopy.
Flow cytometry was used to quantify cellular uptake. […] All samples were kept on ice until they were analysed on a Guava EasyCyte 8HT (Millipore, Darmstadt, Germany) that automatically retrieves samples from a 96-well plate. […] The cell counting gate was determined using propidium iodide (0.5 µM, not washed away prior to analysis) and calcein-AM (10 nM, 15 min staining) to distinguish live and dead cells, and for each sample 5,000 cells from within the live gate were counted and analysed. HF488, AlexaFluor488, EGFP and calcein-AM were excited by a 488 nm laser and their fluorescence was detected through a 525/30 nm filter. Propidium iodide and mRFP were excited by the 488 nm laser but detected through a 692/46 nm filter. HF647 and AlexaFluor647 were excited with a 635 nm laser and detected through a 661/19 nm filter. […]
In general terms: Flow cytometry measures light scatter and fluorescence of single cells or particles in a stream.

As to “Aβ(1–40): Synthetic 40 residue amyloid-β peptide conjugated to HiLyte Fluor HF488 (or HF647) at the N-terminus, from Anaspec”, the “Aβ uptake in Arf6 Q67L versus wild-type Arf6 overexpressing cells” value in data set [1] is “no difference”. In data set [2], the “monomer fraction by SDS-PAGE band intensities” value turned out to be 84%. Moreover, the “saturation of intracellular concentration” value in the data set with SH-SY5Y cells was “neither Aβ(1–40) nor Aβ(1–42) appears to saturate”.
For “Aβ(1–42): Synthetic 42 residue amyloid-β peptide conjugated to HiLyte Fluor HF488 (or HF647) at the N-terminus, from Anaspec”, the “Aβ uptake in Arf6 Q67L versus wild-type Arf6 overexpressing cells” value in data set [1] is on record as “no difference”. Also, in data set [2], the “monomer fraction by SDS-PAGE band intensities” value is on record as 86%. Moreover, in the data set on SH-SY5Y cells, the “saturation of intracellular concentration” value is recorded as “neither Aβ(1–40) nor Aβ(1–42) appears to saturate”.
